Assay results taken from US20090263395.

B1: A2282 protein, wild type (A2282V1, MELK), HA-tagged, immunoprecipitated from HEK 293 cells (protein)
chain: MKDYDELLKYYELHETIGTGGFAKVKLACHILTGEMVAIKIMDKNTLGSDLPRIKTEIEALKNLRHQHICQLYHVLETANKIFMVLEYCPGGELFDYIISQDRLSEEETRVVFRQIVSAVAYVHSQGYAHRDLKPENLLFDEYHKLKLIDFGLCAKPKGNKDYHLQTCCGSLAYAAPELIQGKSYLGSEADVWSMGILLYVLMCGFLPFDDDNVMALYKKIMRGKYDVPKWLSPSSILLLQQMLQVDPKKRISMKNLLNHPWIMQDYNYPVEWQSKNPFIHLDDDCVTELSVHHRNNRQTMEDLISLWQYDHLTATYLLLLAKKARGKPVRLRLSSFSCGQASATPFTDIKSNNWSLEDVTASDKNYVAGLIDYDWCEDDLSTGAATPRTSQFTKYWTESNGVESKSLTPALCRTPANKLKNKENVYTPKSAVKNEEYFMFPEPKTPVNKNQHKREILTTPNRYTTPSKARNQCLKETPIKIPVNSTGTDKLMTGVISPERRCRSVELDLNQAHMEETPKRKGAKVFGSLERGLDKVITVLTRSKRKGSARDGPRRLKLHYNVTTTRLVNPDQLLNEIMSILPKKHVDFVQKGYTLKCQTQSDFGKVTMQFELEVCQLQKPDVVGIRRQRLKGDAWVYKRLVEDILSSCKV
B2: A2282 protein D150A mutant, HA-tagged (protein)
chain: MKDYDELLKYYELHETIGTGGFAKVKLACHILTGEMVAIKIMDKNTLGSDLPRIKTEIEALKNLRHQHICQLYHVLETANKIFMVLEYCPGGELFDYIISQDRLSEEETRVVFRQIVSAVAYVHSQGYAHRDLKPENLLFDEYHKLKLIAFGLCAKPKGNKDYHLQTCCGSLAYAAPELIQGKSYLGSEADVWSMGILLYVLMCGFLPFDDDNVMALYKKIMRGKYDVPKWLSPSSILLLQQMLQVDPKKRISMKNLLNHPWIMQDYNYPVEWQSKNPFIHLDDDCVTELSVHHRNNRQTMEDLISLWQYDHLTATYLLLLAKKARGKPVRLRLSSFSCGQASATPFTDIKSNNWSLEDVTASDKNYVAGLIDYDWCEDDLSTGAATPRTSQFTKYWTESNGVESKSLTPALCRTPANKLKNKENVYTPKSAVKNEEYFMFPEPKTPVNKNQHKREILTTPNRYTTPSKARNQCLKETPIKIPVNSTGTDKLMTGVISPERRCRSVELDLNQAHMEETPKRKGAKVFGSLERGLDKVITVLTRSKRKGSARDGPRRLKLHYNVTTTRLVNPDQLLNEIMSILPKKHVDFVQKGYTLKCQTQSDFGKVTMQFELEVCQLQKPDVVGIRRQRLKGDAWVYKRLVEDILSSCKV
B3: A2282 protein T167A mutant, HA-tagged (protein)
chain: MKDYDELLKYYELHETIGTGGFAKVKLACHILTGEMVAIKIMDKNTLGSDLPRIKTEIEALKNLRHQHICQLYHVLETANKIFMVLEYCPGGELFDYIISQDRLSEEETRVVFRQIVSAVAYVHSQGYAHRDLKPENLLFDEYHKLKLIDFGLCAKPKGNKDYHLQACCGSLAYAAPELIQGKSYLGSEADVWSMGILLYVLMCGFLPFDDDNVMALYKKIMRGKYDVPKWLSPSSILLLQQMLQVDPKKRISMKNLLNHPWIMQDYNYPVEWQSKNPFIHLDDDCVTELSVHHRNNRQTMEDLISLWQYDHLTATYLLLLAKKARGKPVRLRLSSFSCGQASATPFTDIKSNNWSLEDVTASDKNYVAGLIDYDWCEDDLSTGAATPRTSQFTKYWTESNGVESKSLTPALCRTPANKLKNKENVYTPKSAVKNEEYFMFPEPKTPVNKNQHKREILTTPNRYTTPSKARNQCLKETPIKIPVNSTGTDKLMTGVISPERRCRSVELDLNQAHMEETPKRKGAKVFGSLERGLDKVITVLTRSKRKGSARDGPRRLKLHYNVTTTRLVNPDQLLNEIMSILPKKHVDFVQKGYTLKCQTQSDFGKVTMQFELEVCQLQKPDVVGIRRQRLKGDAWVYKRLVEDILSSCKV
B4: A2282 protein T478A mutant, HA-tagged (protein)
chain: MKDYDELLKYYELHETIGTGGFAKVKLACHILTGEMVAIKIMDKNTLGSDLPRIKTEIEALKNLRHQHICQLYHVLETANKIFMVLEYCPGGELFDYIISQDRLSEEETRVVFRQIVSAVAYVHSQGYAHRDLKPENLLFDEYHKLKLIDFGLCAKPKGNKDYHLQTCCGSLAYAAPELIQGKSYLGSEADVWSMGILLYVLMCGFLPFDDDNVMALYKKIMRGKYDVPKWLSPSSILLLQQMLQVDPKKRISMKNLLNHPWIMQDYNYPVEWQSKNPFIHLDDDCVTELSVHHRNNRQTMEDLISLWQYDHLTATYLLLLAKKARGKPVRLRLSSFSCGQASATPFTDIKSNNWSLEDVTASDKNYVAGLIDYDWCEDDLSTGAATPRTSQFTKYWTESNGVESKSLTPALCRTPANKLKNKENVYTPKSAVKNEEYFMFPEPKTPVNKNQHKREILTTPNRYTTPSKARNQCLKEAPIKIPVNSTGTDKLMTGVISPERRCRSVELDLNQAHMEETPKRKGAKVFGSLERGLDKVITVLTRSKRKGSARDGPRRLKLHYNVTTTRLVNPDQLLNEIMSILPKKHVDFVQKGYTLKCQTQSDFGKVTMQFELEVCQLQKPDVVGIRRQRLKGDAWVYKRLVEDILSSCKV

Molecular target: Histone H1 (UPSTATE, Lake Placid, N.Y.)

| Protein | kinase activity (immune complex kinase assay, [gamma-32P]-ATP) |
| --- | --- |
| B1 | wild type and T478A proteins possessing intact kinase domain was observed phosphorylated Histone H1 in vitro |
| B2 | completely abolished in D150A protein |
| B3 | This activity was severely compromised in T167A mutant |
| B4 | wild type and T478A proteins possessing intact kinase domain was observed phosphorylated Histone H1 in vitro |
